Test results taken from patent US20120034212A1 (AstraZeneca / MedImmune, published 2012).
Read-outs that look alike come from different tables or passages of the source. Blank lines part the entries; values can stand above or below the binder they belong to.

Key:
[1] = biological target: T1, recombinant human IL-6 (human, UniProt P05231 30-212); assay: ELISA, E. coli derived recombinant human IL-6 as capture reagent; drawn table 'Avg EC50 (pM)', n = 4
T1 construct: The ELISA used an E. coli expressed recombinant human IL-6 preparation; The TF-1 assay used recombinant bacterially derived human IL-6 (R&D); also called rhuIL-6

[2] = biological target: T1, recombinant human IL-6; assay: cell-based or functional assay
[3] = biological target: T2, endogenous human IL-6 produced by human synovial fibroblasts (human, UniProt P05231 30-212); assay: cell-based or functional assay
[4] = biological target: T1, recombinant human IL-6; assay: affinity estimated from the TF-1 Cell Proliferation Assay (cell-based, not a direct binding assay); Example 1 summarises WO 2008/065378; estimated from the TF-1 Cell Proliferation Assay, not BIAcore
[5] = biological target: T3, human FcRn (human, UniProt P55899 24-297; P61769 21-119, limits assumed); assay: BIAcore, pH 6
T3 construct: also called huFcRn

[6] = biological target: T4, cynomolgus FcRn (cynomolgus, UniProt Q8SPV9 24-297; Q8SPW0 21-119, limits assumed); assay: BIAcore, pH 6
T4 construct: also called cynoFcRn; cyno FcRn

[7] = biological target: T1, recombinant human IL-6; assay: ELISA, E. coli expressed rhuIL-6 as capture reagent
Method: ELISA assays were performed according to standard protocols.

[8] = biological target: T1, recombinant human IL-6; assay: cell-based or functional assay; remark: listed apart in the source
[9] = biological target: endogenous human IL-6 produced by human synovial fibroblasts (human) (UniProt P05231)
[10] = biological target: T1, recombinant human IL-6; assay: BIAcore; Example 1 summarises WO 2008/065378; BIAcore; bound at the assay's detection level
[11] = biological target: endogenous human IL-6 produced by human synovial fibroblasts (human) (UniProt P05231); assay: cell-based or functional assay
[12] = biological target: T2, endogenous human IL-6 produced by human …; assay: cell-based or functional assay; remark: listed apart in the source

Sequence of endogenous human IL-6 produced by human synovial fibroblasts (human) (P05231 30-212): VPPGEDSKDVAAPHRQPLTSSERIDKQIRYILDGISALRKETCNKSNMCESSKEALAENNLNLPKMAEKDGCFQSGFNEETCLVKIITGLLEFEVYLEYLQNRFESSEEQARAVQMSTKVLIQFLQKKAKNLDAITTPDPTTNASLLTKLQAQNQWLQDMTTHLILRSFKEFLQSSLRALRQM
T4 sequence (Q8SPV9 24-297 limits assumed, chain 1 of 2): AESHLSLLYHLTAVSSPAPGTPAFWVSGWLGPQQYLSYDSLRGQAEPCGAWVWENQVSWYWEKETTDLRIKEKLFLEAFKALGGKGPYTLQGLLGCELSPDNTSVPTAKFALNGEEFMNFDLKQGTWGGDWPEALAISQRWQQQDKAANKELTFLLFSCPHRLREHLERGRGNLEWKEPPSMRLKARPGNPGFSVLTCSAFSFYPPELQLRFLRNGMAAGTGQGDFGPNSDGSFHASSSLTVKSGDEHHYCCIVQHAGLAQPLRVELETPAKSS
T4 sequence (Q8SPW0 21-119 limits assumed, chain 2 of 2): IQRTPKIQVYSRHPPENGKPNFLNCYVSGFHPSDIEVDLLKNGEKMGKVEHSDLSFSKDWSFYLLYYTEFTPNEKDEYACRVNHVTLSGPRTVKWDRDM

B2: Antibody 18 (antibody, V domains shown)
VH: EVQLVESGGGLVQPGGSLRLSCAASGFTISSNYMIWVRQAPGKGLEWVSDLYYYAGDTYYADSVKGRFTMSRDISKNTVYLQMNSLRAEDTAVYYCARWADDHPPWIDLWGRGTLVTVSS
VL: DIQMTQSPSTLSASVGDRVTITCRASQGISSWLAWYQQKPGKAPKVLIYKASTLESGVPSRFSGSGSGTEFTLTISSLQPDDFATYYCQQSWLGGSFGQGTKLEIK
notes: Human anti-IL-6 IgG1 with a wild type Fc region; It is the parent of Antibody 18E; also called Ab 18
Kd [4]: 0.0004 nM
Kd [5]: 2610 nM
Kd [6]: 1160 nM
EC50 [7]: 0.0061 nM
IC50, inhibition of IL-6 induced TF-1 cell proliferation [8]: 0.0045 nM
IC50, inhibition of endogenous IL-6 induced VEGF release from human synovial fibroblasts [9]: 1.3 nM
Kd [10]: < 0.01 nM
IC50, inhibition of endogenous IL-6 induced VEGF release from human synovial fibroblasts [11]: 0.0013 nM

B4: Antibody 18E (antibody, human IgG1, kappa)
heavy: EVQLVESGGGLVQPGGSLRLSCAASGFTISSNYMIWVRQAPGKGLEWVSDLYYYAGDTYYADSVKGRFTMSRDISKNTVYLQMNSLRAEDTAVYYCARWADDHPPWIDLWGRGTLVTVSSASTKGPSVFPLAPSSKSTSGGTAALGCLVKDYFPEPVTVSWNSGALTSGVHTFPAVLQSSGLYSLSSVVTVPSSSLGTQTYICNVNHKPSNTKVDKRVEPKSCDKTHTCPPCPAPELLGGPSVFLFPPKPKDTLYITREPEVTCVVVDVSHEDPEVKFNWYVDGVEVHNAKTKPREEQYNSTYRVVSVLTVLHQDWLNGKEYKCKVSNKALPAPIEKTISKAKGQPREPQVYTLPPSREEMTKNQVSLTCLVKGFYPSDIAVEWESNGQPENNYKTTPPVLDSDGSFFLYSKLTVDKSRWQQGNVFSCSVMHEALHNHYTQKSLSLSPGK
light: DIQMTQSPSTLSASVGDRVTITCRASQGISSWLAWYQQKPGKAPKVLIYKASTLESGVPSRFSGSGSGTEFTLTISSLQPDDFATYYCQQSWLGGSFGQGTKLEIKRTVAAPSVFIFPPSDEQLKSGTASVVCLLNNFYPREAKVQWKVDNALQSGNSQESVTEQDSKDSTYSLSSTLTLSKADYEKHKVYACEVTHQGLSSPVTKSFNRGEC
notes: Antibody 18 with the M252Y, S254T and T256E substitutions (EU index) in the IgG1 Fc region; Expressed in CHO-K1 cells; also called Ab 18E
Kd [5]: 226 nM
Kd [6]: 365 nM
EC50 [7]: 0.0065 nM
IC50, inhibition of endogenous IL-6 induced VEGF release from human synovial fibroblasts [12]: 0.0012 nM
IC50, inhibition of IL-6 induced TF-1 cell proliferation [8]: 0.0052 nM
IC50, inhibition of endogenous IL-6 induced VEGF release from human synovial fibroblasts [3]: 0.0012 nM

Further lines, results first:

EC50 [1]: 0.0141 nM
IC50, inhibition of IL-6 induced TF-1 cell proliferation [2]: 0.0781 nM
IC50, inhibition of endogenous IL-6 induced VEGF release from human synovial fibroblasts [3]: 2.2 nM
B1: IL-6 antibody B (antibody, V domains shown)
VH: QSVEESGGRLVTPGTPLTLTCTVSGFSLSAYDMYWVRQAPGKGLEWIGITYGSGKTYYARWAKGRFTISKTSTTVALKITSPTTEDTATYFCARDSGYPGGSSAYNLWGQGTLVTVSS
VL: AAVLTQTPSAVSAAVGGTVTISCQSSQSVTVNNDLAWYQQRPGQPPKLLIYRASNLASRVPSRFSGSGSGTQFTLTISGVQCDDAATYYCLGGYDDDASNAFGGGTEVVVKG

EC50 [1]: 0.0078 nM
IC50, inhibition of IL-6 induced TF-1 cell proliferation [2]: 0.0059 nM
IC50, inhibition of endogenous IL-6 induced VEGF release from human synovial fibroblasts [3]: 2.8 nM
B3: IL-6 antibody A (antibody, V domains shown)
VH: QEQLVESGGGLVQPEGSLTLTCIASGWSFSSSHYMCWVRQAPGKGLEWIGCIYTGSGMTYYASWAKGRFTISKTSSTTVTLQMTSLTAADTATYFCARKIGGTDDYGDSLYFSLWGQGTLVTVSS
VL: AQVLTQTPSPVSAAVGGTVTINCQASQSVYNNSKLAWYQQKPGQPPKLLIYKASSLASGVSSRFKGSGSGTQFTLTISGVQCDDAATYYCQHEFSCSSADCVAFGGGTEVVVKG
